This assay deals with T1, GST–Cdc15p(1–405) (S. pombe, UniProt Q09822 1-405).
T1 sequence (looked up): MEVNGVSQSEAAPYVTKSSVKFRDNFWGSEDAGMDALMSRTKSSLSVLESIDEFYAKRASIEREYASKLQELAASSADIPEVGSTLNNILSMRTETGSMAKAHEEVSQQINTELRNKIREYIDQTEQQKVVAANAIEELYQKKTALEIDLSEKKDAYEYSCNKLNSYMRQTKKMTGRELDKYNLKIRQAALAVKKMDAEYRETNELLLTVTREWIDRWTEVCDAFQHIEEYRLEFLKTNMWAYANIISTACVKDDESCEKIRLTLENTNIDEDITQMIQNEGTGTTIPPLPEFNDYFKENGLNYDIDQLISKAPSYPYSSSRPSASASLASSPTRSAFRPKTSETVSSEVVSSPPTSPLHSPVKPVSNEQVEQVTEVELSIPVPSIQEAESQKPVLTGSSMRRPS
Description: pull-down.

B1: MBP–Myo1p(727–1041) (domain or fragment, S. pombe, UniProt Q9Y7Z8 727-1041, looked up)
chain: ATRIQRAWRSYVRRRSEAAACIQKLWNRNKVNMELERVRNEGTKLLQGKKQRRRYSILGSRKFYGDYLSASKPNGTLWNTCGLSQNDHVIFSMRCEVLVHKLGRTSKPSPRQLVLTKKNLYLVITKIVDQKLTQQVEKKFAVSSIDSVGLTNLQDDWVAIRNKSSQNGDMFLRCFFKTEFITTLKRINRNIQVIVGPTIQYCRKPGKVQTVKTAKDETTKDYDYYKSGTIHVGTGLPPTSKSKPFPRLATGGSTAAARGPRPVVQNKPAATKPVSMPAAKSKPAPMANPVSTAQQTQNRPPAPAMQARPNTTQAA
As for B1, the binding result was “binds”.
